Experimental data taken from US7790363B2, “Diagnostic test for vitamin B12” (Abbott Laboratories Inc., priority 2005, dated 2010).

B1: recombinant porcine intrinsic factor: Recombinant porcine intrinsic factor produced in E. coli from the pMAL-IF or pET32a-IF vector, affinity purified (protein)
chain: YNLKAQKLLTYKLMATNTSDLTTGQLALTIMALTSSCRDPGNRIAILQGQMENWAPPSLDTHASTFYEPSLGILTLCQNNPEKTLPLAARFAKTLLANSSPFNMDTGAMATLALTCMYNKIPVGSEEGYRALFSQVLRNTVENISMRIQDNGIIGNIYSTGLAMQALSVTPEQPNKEWDCQKTMDTVLTEIKEGKFHNPMAIAQILPSLKGKTYLDVPHVSCSPGHEVPPTLPNHPSPVPTPAPNITVIYTINNQLRGVELLFNETISVSVKRGSVLLIVLEEAQRKNPKFKFETTMTSWGPVVSSINNIAENVNHRTYWQFLSGQTPLNEGVADYIPFNHEHITANFTQY
modifications: S. scrofa
B2: Porcine IF cDNA54-1254-Mature Peptide: Porcine intrinsic factor mature peptide, 399 amino acids, SEQ ID NO: 9, expressed from pGEMEX-1 expression vector (protein)
chain: STQTRSSCSVPSAEQPLVNGIQVLMEQSVTSSAFPNPSILIAMNLAGAYNTEAQELLTYKLMATNTSDLTTGQLALTIMALTSSCRDPGNRIAILQGQMENWAPPSLDTHASTFYEPSLGILTLCQNNPEKTLPLAARFAKTLLANSSPFNMDTGAMATLALTCMYNKIPVGSEEGYRALFSQVLRNTVENISMRIQDNGIIGNIYSTGLAMQALSVTPEQPNKEWDCQKTMDTVLTEIKEGKFHNPMAIAQILPSLKGKTYLDVPHVSCSPGHEVPPTLPNHPSPVPTPAPNITVIYTINNQLRGVELLFNETISVSVKRGSVLLIVLEEAQRKNPKFKFETTMTSWGPVVSSINNIAENVNHRTYWQFLSGQTPLNEGVADYIPFNHEHITANFTQY
modifications: S. scrofa

Key:
[1] = "ARCHITECT" Intrinsic Factor Binding Capacity Assay (one-step competitive assay); details: read from vitamin B12 calibration curve, converted to binding capacity using an equation
Experimental: The vitamin B12-binding capacity of the recombinant porcine Intrinsic Factor was measured using in “ARCHITECT” Intrinsic Factor Binding Capacity Assay. The assay is a one-step competitive assay where intrinsic factor from the test sample competes with intrinsic factor coated onto microparticles for the vitamin B12-acridinium tracer. Thus, signal in the assay is inversely proportional to the concentration of intrinsic factor in the test sample. The results are read from a vitamin B12 calibration curve, and the vitamin B12 concentration results are converted to binding capacity using an equation. The Binding Capacity Value for the recombinant porcine intrinsic factor was determined to be 904 ng/ml.

[2] = vitamin B12-Alkaline Phosphatase conjugate blot; assay type: binding; details: E. coli lysate, SDS-PAGE, blotted onto nitrocellulose, probed with vitamin B12-alkaline phosphatase conjugate
Excerpt: FIG. 2 illustrates the binding of recombinant porcine intrinsic factor to vitamin B12. The E. coli cells were lysed and the proteins were resolved using SDS-PAGE and blotted onto a nitrocellulose membrane. The membrane was probed with vitamin B12 conjugate to alkaline phosphatase. […] Lane 1 contains molecular weight markers (marked in kilodaltons). Lanes 2, 3, 4, and 5 represent cells from various clones expressing recombinant porcine intrinsic factor. Lane 6 contains the native porcine intrinsic factor (purified from hog (Sus scrofa) gut).
(§1) The E. coli lysate containing the expressed recombinant porcine intrinsic factor was run on an SDS-PAGE (Polyacrylamide Gel Electrophoresis), and the gel was blotted onto nitrocellulose. This blot was probed with vitamin B12-alkaline phosphatase conjugate and developed using an appropriate substrate. […] Referring now to FIG. 2, Lane 1 contains molecular weight markers (marked in kilodaltons). Lanes 2, 3, 4, and 5 represent cells from various clones expressing recombinant porcine intrinsic factor. Lane 6 contains the native porcine intrinsic factor (purified from hog (Sus scrofa) gut).

[3] = tested on: anti-intrinsic factor antibody; assay: Western blotting with anti-intrinsic factor antibody; assay type: binding; details: E. coli lysate, SDS-PAGE, blotted onto nitrocellulose, probed with anti-intrinsic factor antibody
Excerpt: FIG. 3 illustrates the binding of recombinant porcine intrinsic factor to anti-intrinsic factor antibody by Western blotting. The E. coli cells were lysed and the proteins were resolved using SDS-PAGE and blotted onto a nitrocellulose membrane. The membrane was then probed with anti-intrinsic factor antibody. Lane 1 contains molecular weight markers (marked in kilodaltons). Lanes 2, 3, 4, and 5 represent cells from various clones expressing recombinant porcine intrinsic factor. Lane 6 contains the native porcine intrinsic factor (purified from hog (Sus scrofa) gut).
as §1, with “E. Coli” for “E. coli”, “with anti-intrinsic factor antibody” for “with vitamin B12-alkaline phosphatase conjugate”, “FIG. 3,” for “FIG. 2,”

[4] = Solubility of the protein expressed in E. coli; assay type: physicochemical; details: expression in E. coli from the named vector
Experimental: Using the Porcine IF cDNA14-1248 (SEQ ID NO: 5) as the template and the Forward Primer pIFMP-ForI (SEQ ID NO: 14) and Reverse Primer pIFMP-RevXhoI (SEQ ID NO: 15), the cDNA encoding the Porcine IF cDNA54-1254-Mature Peptide was amplified by PCR. The PCR profile was as follows: one initial denaturation step at a temperature of 95° C. for 5 minutes; then 33 cycles of the following conditions: a temperature of 95° C. for 30 seconds, then a temperature of 57° C. for 30 seconds, then a temperature of 72° C. for 1 minute; followed by a final extension at a temperature of 72° C. for 5 minutes. This PCR fragment was subcloned into pGEMEX-1 expression vector (purchased from Promega Corporation, Madison, Wis.).
To produce a soluble version of this protein, cDNA encoding the Porcine IF cDNA54-1254-Mature Peptide was amplified by PCR using IF cDNA14-1248 (SEQ ID NO: 5) as the template and the Forward primer pIF-PIC-MP-For EcoR1 (SEQ ID NO: 16) and the Reverse pIF-MP-pMAL-SaI1 Rev primer (SEQ ID NO: 17) and the following PCR conditions: one initial denaturation step at a temperature of 95° C. for 5 minutes; then 35 cycles of the following conditions: a temperature of 95° C. for 30 seconds, then a temperature of 56° C. for 30 seconds, then a temperature of 72° C. for 1 minute; followed by a final extension at a temperature of 72° C. for 5 minutes. […]

Molecule	Binding Capacity Value (vitamin B12-binding capacity) [1]	binding to vitamin B12 (band developed color) [2]	binding to anti-intrinsic factor antibody (band developed color) [3]	solubility of the expressed protein [4]
B1	904 ng/mL	bound to vitamin B12	recognized by the antibody	–
B2	–	–	–	insoluble and formed inclusion bodies
